According to patent publication US20250188133A1, “CHIMERIC BACTERIOCINS AND METHOD FOR THE CONTROL OF PSEUDOMONAS” (priority 2022, published 2025):
Values joined by “and” are separate entries in the source; they are usually repeats but may differ in a detail not shown here. Equal entries are not always repeated.

Key:
[1] = system: P. aeruginosa PAO1; test: murine keratitis model, invasive strain (C57BL/6 mice); format: in vivo
Method: The inbred mice of C57BL/6 strain of both sexes in equivalent numbers were used for the research. 2-6 months old, adult female and adult male mice were purchased from the Vilnius University vivarium of laboratory animals. The animals throughout the period of the experiment were given standard chow and drinking water ad libitum. Animals were housed in the individual plastic cages in a 12 h light/dark cycle at 21-23° C. All regulated procedures on living animals were approved by The Lithuanian Ethics Committee of Biomedical Research (Protocol no. B1-442) and were carried out in accordance with the European Union legislation of OECD (directive 2010/63/EU). The experiments were carried out in Biological research center of Lithuanian University of Health Sciences.
For P. aeruginosa infection and keratitis induction the mice were anesthetized by Ketamine and Xylazine 90:9 mg/kg intraperitoneal injection. The cornea of the left eye of each mouse was visualized under a stereoscopic microscope, and three 1 mm scratches were made using a sterile 25 gauge needle. A 10 μL aliquot containing 4×10^6 cells of P. aeruginosa ATCC 19660 (cytotoxic strain) or PAO1 ATCC 15692 (invasive strain) was applied to the corneal surface. Depending on the experiment, the treatment was started 30 min or 6 h post infection. 10 μl aliquot containing 0.14 mg of tobramycin or 20 μg of S5-PmnH (both containing 0.5% hydroxypropyl methylcellulose (HPMC)) or PBS containing 0.5% HPMC was applied as one drop of substance to the each eye. HPMC is used as artificial tears and was used in order to thicken the tears film and prolong the presence of the applied product on the surface of the cornea. The treatment was continued for five days twice daily. Mice were euthanized by cervical dislocation 1, 3, 5 days post infection, and the eyeballs were collected and homogenized for viable bacteria count.
The eyes were examined and photographed with a dissection microscope equipped with a digital camera at 1, 3 and 5 dpi to monitor the disease progression. At 1, 3 and 5 dpi disease severity was visually graded by using an established corneal damage scale: 0, the pupil was partially or fully covered by clear or slight opacity; +1, the anterior segment was partially or fully covered by slight opacity; +2, the pupil was partially or fully covered by dense opacity; +3, the entire anterior segment was covered by dense opacity; and +4, corneal perforation^40.
Histopathology experiments were carried out at Lithuanian University of Health Sciences, Department of Veterinary Pathobiology of Veterinary Academy. One randomly chosen mice of each study group was used for histopathology experiments. Enucleated eyes were preserved in 10% formaldehyde. Eyes were paraffin-embedded, cut into 3-μm-thick sections, deparaffinised, rehydrated and used for preparation of hematoxylin/eosin stained samples.

[2] = system: P. aeruginosa BR79; test: agar disc-diffusion assay; format: cell-based; details: strain BR79; 0.3, 3 and 30 μg of protein spotted on discs on CAA agar lawn, overnight
In short: (§1)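 Lawns came from overnight CAA cultures set to OD595=1.0, diluted 100× and swabbed onto 1.5% CAA agar. Paper discs (6 mm) carried 0.3–30 μg of chimeric pyocins. Inhibition zones were scored after overnight incubation at 37° C.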

[3] = system: P. aeruginosa ATCC 19660; test: agar disc-diffusion assay; format: cell-based; details: strain ATCC 19660; 0.3, 3 and 30 μg of protein spotted on discs on CAA agar lawn, overnight
In short: as §1

[4] = system: P. aeruginosa BL77; test: agar disc-diffusion assay; format: cell-based; details: strain BL77; 0.3, 3 and 30 μg of protein spotted on discs on CAA agar lawn, overnight
In short: as §1

[5] = system: P. aeruginosa BI80; test: agar disc-diffusion assay; format: cell-based; details: strain BI80; 0.3, 3 and 30 μg of protein spotted on discs on CAA agar lawn, overnight
In short: as §1

[6] = system: P. aeruginosa HP75; test: agar disc-diffusion assay; format: cell-based; details: strain HP75; 0.3, 3 and 30 μg of protein spotted on discs on CAA agar lawn, overnight
In short: as §1

[7] = system: P. aeruginosa 13-18499; test: agar disc-diffusion assay; format: cell-based; details: strain 13-18499; 0.3, 3 and 30 μg of protein spotted on discs on CAA agar lawn, overnight
In short: as §1

[8] = system: P. aeruginosa PA14; test: agar disc-diffusion assay; format: cell-based; details: strain PA14; 0.3, 3 and 30 μg of protein spotted on discs on CAA agar lawn, overnight
In short: as §1

[9] = system: P. aeruginosa ATCC 29260; test: agar disc-diffusion assay; format: cell-based; details: strain ATCC 29260; 0.3, 3 and 30 μg of protein spotted on discs on CAA agar lawn, overnight
In short: as §1

[10] = system: P. aeruginosa A19; test: agar disc-diffusion assay; format: cell-based; details: strain A19; 0.3, 3 and 30 μg of protein spotted on discs on CAA agar lawn, overnight
In short: as §1

[11] = system: P. aeruginosa NCTC 13437; test: agar disc-diffusion assay; format: cell-based; details: strain NCTC 13437; 0.3, 3 and 30 μg of protein spotted on discs on CAA agar lawn, overnight
In short: as §1

[12] = system: P. aeruginosa Bu002; test: agar disc-diffusion assay; format: cell-based; details: strain Bu002; 0.3, 3 and 30 μg of protein spotted on discs on CAA agar lawn, overnight
In short: as §1

B1: S5-PmnH (protein)
chain: MSNDNEVPGSMVIVAQGPDDQYAYEVPPIDSAAVAGNMFGDLIQREIYLQKNIYYPVRSIFEQGTKEKKEINKKVSDQVDGLLKQITQGKREATRQERVDVMSAVLHKMESDLEGYKKTFTKGPFIDYEKQSSLSIYEAWVKIWEKNSWEERKKYPFQQLVRDELERAVAYYKQDSLSEAVKVLRQELNKQKALKEKEDLSQLERDYRTRKANLEMKVQSELDQAGSALPPLVSPTPEQWLERATRLVTQAIADKKQLQTTNNTLIKNSPTPLEKQKAIYNGELLVDEIASLQARLVKLNAETTRRRTEKELTPDEKAAYTDAVSFVSTANEQMLQKYGANLSKVAQDMQAEIAGKKVRSYAEAMATFEKISANPAMKLNALDTQAVVDALNALDKASFADNITRLGKAFGVVGKVVQAEAIREKTVSGFQTGDWKPLMLELEAMAVGTGAGILLATSMAFFFPVFASAAAGVVVVALMMAATAAYFDAAKVDEINNLILN
modifications: Chimeric S5-PmnH
histological examination of infected treated eyes ([1]; 1 dpi): signs of acute inflammation of cornea | histological examination of infected treated eyes ([1]; 3 dpi): signs of acute inflammation of cornea | histological examination of infected treated eyes ([1]; day 5): no aberrations | average reduction of bacterial burden vs mock-treated ([1]; treatment started 6 h post infection, 1 dpi): 1.04 log 10 CFU/cornea | viable bacteria in cornea, individual mouse ([1]; treatment started 6 h post infection, 3 dpi, third mouse): 2.38 log 10 CFU | mice from which no viable bacteria were isolated ([1]; treatment started 6 h post infection, 3 dpi, three mice per group): two | viable bacteria in cornea, individual mice ([1]; treatment started 6 h post infection, 5 dpi, mice with bacteria): 5.14 log 10 CFU/cornea and 3.34 log 10 CFU/cornea | mice from which no bacteria were isolated ([1]; treatment started 6 h post infection, 5 dpi, three mice per group): one | Activity in agar disc-diffusion assay [2]: ** (activity detected with 3 μg of protein) | Activity in agar disc-diffusion assay [3]: ** (activity detected with 3 μg of protein) | Activity in agar disc-diffusion assay [4]: ** (activity detected with 3 μg of protein) | Activity in agar disc-diffusion assay [5]: *** (activity detected with 0.3 μg of protein) | Activity in agar disc-diffusion assay [6]: ** (activity detected with 3 μg of protein) | Activity in agar disc-diffusion assay [7]: ** (activity detected with 3 μg of protein) | Activity in agar disc-diffusion assay [8]: *** (activity detected with 0.3 μg of protein) | Activity in agar disc-diffusion assay [9]: *** (activity detected with 0.3 μg of protein) | Activity in agar disc-diffusion assay [10]: *** (activity detected with 0.3 μg of protein) | Activity in agar disc-diffusion assay [11]: * (activity detected only with 30 μg of protein) | Activity in agar disc-diffusion assay [12]: *** (activity detected with 0.3 μg of protein)
